According to publication PMC5114622, “In vivo protein interaction network analysis reveals porin-localized antibiotic inactivation in Acinetobacter baumannii strain AB5075” (Nature Communications, 2016):
Where “and” joins values, the source holds several entries; their conditions need not be identical. Identical values can stand only once.

Biological target: the molecule itself
Assay: cross-linking + co-IP; AB5075-pMMB-oxa23 cells cross-linked with BDP-NHP, lysates denatured with SDS, anti-HA agarose IP; immunoblots with anti-HA, anti-OmpA, streptavidin; DMSO-treated control

B1: Oxa23-HA-Strep (enzyme)
chain: CTVQHNLINETPSQIVQGHNQVIHQYFDEKNTSGVLVIQTDKKINLYGNALSRANTEYVPASTFKMLNALIGLENQKTDINEIFKWKGEKRSFTAWEKDMTLGEAMKLSAVPVYQELARRIGLDLMQKEVKRIGFGNAEIGQQVDNFWLVGPLKVTPIQEVEFVSQLAHTQLPFSEKVQANVKNMLLLEESNGYKIFGKTGWAMDIKPQVGWLTGWVEQPDGKIVAFALNMEMRSEMPASIRNELLMKSLKQLNII
notes: Oxa-23 of Acinetobacter baumannii AB5075; oxa-23 gene with the TAA stop codon omitted so that the HA-Strep tag of the pMMB vector follows; I take the same for this construct and that the signal peptide is cut on export; also called Oxa-23 with C-terminal HA-Strep tags; tagged Oxa-23; source: A. baumannii AB5075 WT cells transformed with pMMB-oxa23-HA-Strep (AB5075-pMMB-oxa23), in lysate; not …
stoichiometry N: 2 and 4
